B1: [Gd/4arm-DOTA-CH2-(1,4-Ph)-NH-C(═S)-NH-CH2-(1,3-Ph)-C(═O)-Met-Gly-Lys*-Z2(#S)]p-Fab^2 (Fab, V domains shown)
VH: EVQLVESGGGLVQPGGSLRLSCAASGFNIRDTYMHWVRQAPGKGLEWVARIDPANGNSRYVPKFQGRFTISADTSRNTAYLQMNSLRAEDTAVYYCAPFGYYVSDYAMAYWGQGTLVTVSS
VL: DIQLTQSPSSLSASVGDRVTITCRAGESVDIFGVGFLHWYQQKPGKAPKLLIYRASNLESGIPSRFSGSGSRTDFTLTISSLQPEDFATYYCQQTNEDPYTFGQGTKVEIKR
modifications: labeling may sit on this chain; sites not stated; labeling portion (MW 1355) bound via 2-iminothiolane-treated amino groups of the Fab, sites and chain not stated; 1-2 per Fab by MS
notes: also called Ex-No 40; Conjugate No. 40
B2: (Y-S1-X)p-Fab^2 with Y Gd/DOTA, S1 spacer (p), X -Met-Gly-Lys*-Z2(#N)- (Fab, V domains shown)
VH: B1 VH
VL: B1 VL
modifications: labeling may sit on this chain; sites not stated; labeling portion (MW 1079) on amino groups of the Fab, sites and chain not stated; 1-3 per Fab by MS
notes: also called Ex-No 57; conjugate 57
B3: (Y-S1-X)p-Fab^2 with Y DFO, S1 -C(═O)-(1,3-Ph)-C(═O)-, X -Gly-Lys*Z2(#S)- (Fab, V domains shown)
VH: B1 VH
VL: B1 VL
modifications: labeling may sit on this chain; sites not stated; labeling portion (MW 1076) on amino groups of the Fab, sites and chain not stated; 1-3 per Fab by MS
notes: No metal; also called Ex-No 64; conjugate 64
B4: (Y-S1-X)p-Fab^2 with Y Gd/DOTA, S1 - (bond), X -Gly-Lys*-Z2(#S)- (Fab, V domains shown)
VH: B1 VH
VL: B1 VL
modifications: labeling may sit on this chain; sites not stated; labeling portion (MW 926) on amino groups of the Fab, sites and chain not stated; 1-2 per Fab by MS
notes: also called Ex-No 5; conjugate 5
B5: (Y-S1-X)p-Fab^2 with Y Gd/DOTA, S1 - (bond), X -Gly-Tyr*-CH2-C-(═O)-Lys*-Z2(#N)- (Fab, V domains shown)
VH: B1 VH
VL: B1 VL
modifications: labeling may sit on this chain; sites not stated; labeling portion (MW 1046) on amino groups of the Fab, sites and chain not stated; 1-3 per Fab by MS
notes: also called Ex-No 4; conjugate 4
B6: (Y-S1-X)p-Fab^2 with Y Gd/DOTA, S1 spacer (m), X -Met-Gly-Lys*-Z2(#N)- (Fab, V domains shown)
VH: B1 VH
VL: B1 VL
modifications: labeling may sit on this chain; sites not stated; labeling portion (MW 1107) on amino groups of the Fab, sites and chain not stated; 1 per Fab by MS
notes: also called Ex-No 42; conjugate 42
B7: (Y-S1-X)p-Fab^2 with Y Gd/DOTA, S1 -NH-(CH2CH2O)3-CH-C(═O)-NH-CH2-(1,3-Ph)-C(═O)-, X -Gly-Lys*-C(═S)-NH-(1,4-Ph)-NH-C(═S)- (Fab, V domains shown)
VH: B1 VH
VL: B1 VL
modifications: labeling may sit on this chain; sites not stated; labeling portion (MW 1259) on amino groups of the Fab, sites and chain not stated; 1-3 per Fab by MS
notes: also called Ex-No 44; conjugate 44
B8: [DFO-C(═O)-(CH2CH2O)4-(1,3-Ph)-C(═O)-Gly-Lys*-Z2(#S)]p-Fab^2 (Fab, V domains shown)
VH: B1 VH
VL: B1 VL
modifications: labeling may sit on this chain; sites not stated; labeling portion (MW 1252) bound via 2-iminothiolane-treated amino groups of the Fab, sites and chain not stated; 1-2 per Fab by MS
notes: No metal; also called Ex-No 61; Conjugate No. 61
B9: (Y-S1-X)p-Fab^2 with Y Gd/4arm-DOTA, S1 -CH2-(1,4-Ph)-NH-C(═S)-, X -Gly-Tyr-Lys*-Z2(#N)- (Fab, V domains shown)
VH: B1 VH
VL: B1 VL
modifications: labeling may sit on this chain; sites not stated; labeling portion (MW 1153) on amino groups of the Fab, sites and chain not stated; 1-2 per Fab by MS
notes: also called Ex-No 56; conjugate 56
B10: (Y-S1-X)p-Fab^2 with Y Gd/4arm-DOTA, S1 spacer (o), X -Met-Gly-Lys*-Z2(#N)- (Fab, V domains shown)
VH: B1 VH
VL: B1 VL
modifications: labeling may sit on this chain; sites not stated; labeling portion (MW 1304) on amino groups of the Fab, sites and chain not stated; 1-2 per Fab by MS
notes: also called Ex-No 59; conjugate 59
B11: (Y-S1-X)p-Fab^2 with Y Gd/DOTA, S1 spacer (i), X -Met -Gly-Lys*-Z2(#N)- (Fab, V domains shown)
VH: B1 VH
VL: B1 VL
modifications: labeling may sit on this chain; sites not stated; labeling portion (MW 1296) on amino groups of the Fab, sites and chain not stated; 1-2 per Fab by MS
notes: also called Ex-No 45; conjugate 45
B12: (Y-S1-X)p-Fab^2 with Y Gd/DOTA, S1 - (bond), X -Gly-Val-NH-(CH2)2-Z1(#N)- (Fab, V domains shown)
VH: B1 VH
VL: B1 VL
modifications: labeling may sit on this chain; sites not stated; labeling portion (MW 838) on amino groups of the Fab, sites and chain not stated; 1-2 per Fab by MS
notes: also called Ex-No 2; conjugate 2
B13: (Y-S1-X)p-Fab^2 with Y Gd/DOT[A], S1 - (bond), X -Gly-Ile-NH-(CH2)2-Z1(#N)- (Fab, V domains shown)
VH: B1 VH
VL: B1 VL
modifications: labeling may sit on this chain; sites not stated; labeling portion (MW 852) on amino groups of the Fab, sites and chain not stated; 1-3 per Fab by MS
notes: also called Ex-No 3; conjugate 3

For this test, the target named is T1, CEACAM5 (R&D Systems, 4128-CM-050) (human, UniProt P06731 35-685).
T1 construct: Immobilised on the ELISA plate; also called human CEACAM5
T1 sequence (looked up): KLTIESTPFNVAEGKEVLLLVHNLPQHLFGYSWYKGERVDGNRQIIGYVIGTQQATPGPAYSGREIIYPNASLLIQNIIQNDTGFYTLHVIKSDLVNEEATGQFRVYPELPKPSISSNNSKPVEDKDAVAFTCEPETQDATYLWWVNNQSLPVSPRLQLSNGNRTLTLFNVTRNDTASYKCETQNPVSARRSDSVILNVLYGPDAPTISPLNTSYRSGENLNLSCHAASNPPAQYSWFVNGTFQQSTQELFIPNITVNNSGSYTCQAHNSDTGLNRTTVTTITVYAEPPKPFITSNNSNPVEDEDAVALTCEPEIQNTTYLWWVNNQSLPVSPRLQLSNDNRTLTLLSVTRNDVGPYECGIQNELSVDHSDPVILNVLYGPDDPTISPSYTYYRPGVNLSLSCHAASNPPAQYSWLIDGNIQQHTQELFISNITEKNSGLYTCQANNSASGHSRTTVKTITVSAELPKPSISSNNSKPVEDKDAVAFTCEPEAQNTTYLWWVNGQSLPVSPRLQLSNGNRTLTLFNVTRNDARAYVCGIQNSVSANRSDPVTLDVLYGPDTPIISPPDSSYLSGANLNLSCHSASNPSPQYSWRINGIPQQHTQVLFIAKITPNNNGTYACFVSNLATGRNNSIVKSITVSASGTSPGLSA
The test can be described thus: ELISA on immobilised CEACAM5, 4-parameter fit, duplicate. On the procedure:
Each anti-human CEACAM5 antibody Fab fragment conjugate prepared in Example 2 was subjected to ELISA to evaluate the binding activity thereof to CEACAM5. In the present test, a phosphate buffer (Nacalai Tesque Inc., 0.1 mol/L-Phosphate Buffer Solution (pH 7.2)) prepared to 10 mM by diluting 10-fold with distilled water was used as a solvent for an antigen immobilization liquid, and 20×PBS/Tween 20 Buffer (Thermo Fisher Scientific Inc., 28352) diluted 20-fold with distilled water was used as a wash liquid. In addition, for bovine serum albumin (BSA) used in the present test, 30% Bovine Serum Albumin solution (Sigma-Aldrich, Inc., A9576-50ML) was added in an appropriate proportion for use. CEACAM5 (R&D Systems, 4128-CM-050) was diluted with a 10 mM phosphate buffer (pH 7.2) to 0.1 μg/mL, and added to a Nunc MaxiSorp White 384 plate (Nunc, 4603272) at 30 μL per well, and the plate was incubated overnight at 4° C. for immobilization. The CEACAM5 immobilization liquid was removed by reverse centrifugation, and then blocking was carried out by adding a PBS/Tween 20 buffer containing 5.0% BSA. Thereafter, the blocking solution was removed by reverse centrifugation, a solution of each CEACAM5 antibody Fab² fragment conjugate described above or a Fab² fragment having no labeling portion (PB009-01) as a control at about 10000 ng/mL was diluted in 14 steps by 3-fold dilution using a PBS/Tween 20 buffer containing 1.0% BSA, and 30 μL was added per well and incubated at room temperature for 60 minutes. The plate was washed 3 times with a PBS/Tween 20 buffer, and Horseradish Peroxidase (HRP)-labeled goat anti-human IgG (H+L chain) antibody (MBL Life Sciences, 206) diluted 1000-fold using a PBS/Tween 20 buffer containing 5.0% BSA was added at 30 μL per well and incubated at room temperature for 30 minutes. The plate was washed 3 times with a PBS/Tween 20 buffer, and ECL Prime Western Blotting DETECTION Reagent (GE Healthcare, RPN2232) as a substrate was added at 30 μL per well. The substrate was incubated at room temperature for 15 minutes, and then a signal value thereof was measured using an Envision counter (PerkinElmer, Inc.).
The test for each antibody was carried out in duplicate, and an EC₅₀ value was calculated using a 4-parameter logistic curve model.
For orientation: An ELISA detects its analyte on a solid surface through an enzyme-linked reagent.
B1 showed an EC50 of 220 pM.

B2 came in with a half-maximal effective concentration (EC50) of 290 pM.

B3 registered an EC50 of 200 pM.

B4 yielded a 50% effective concentration (EC50) of 140 pM.

Molecule B5 yielded an EC50 of 150 pM.

In the case of B6, a half-maximal response (EC50) required 210 pM.

On to B7, for which the EC50 was 290 pM. The same measure for B8: 180 pM; for B9: 260 pM. As for B10, the figure is 300 pM. Turning to B11, the EC50 was 230 pM. Take B12: a half-maximal response (EC50) required 140 pM.

The molecule B13 displayed an EC50 of 130 pM.

The EC50 is the concentration that produces a half-maximal response.

Values taken from patent US20220096653A1, “CONJUGATE COMPRISING LIGAND AND CEACAM5 ANTIBODY FAB FRAGMENT” (ASTELLAS PHARMA INC., priority 2019, published 2022).
